Source: article PMC11417369, “DNA sequence and chromatin differentiate sequence-specific transcription factor binding in the human malaria parasite Plasmodium falciparum”

B1: XGTACX_site3444 (dsDNA)
DNA 1: TATATTATATATTTATGTACGTATTTGTAAAAAGAT
DNA 2: ATCTTTTTACAAATACGTACATAAATATATAATATA
B2: XGTACX_site5457 (dsDNA)
DNA 1: ATGGATAACAATATGTGTACACATTTATATCTCCAC
DNA 2: GTGGAGATATAAATGTGTACACATATTGTTATCCAT
B3: XGTACX_site3596 (dsDNA)
DNA 1: AAGGAAAATTTTTGGTGTACACAAAAAAATCCAAAA
DNA 2: TTTTGGATTTTTTTGTGTACACCAAAAATTTTCCTT
B4: XGTACX_site146 (dsDNA)
DNA 1: GGACGTATTAAAAGGCGTACACTAAATATTTTATGT
DNA 2: ACATAAAATATTTAGTGTACGCCTTTTAATACGTCC
B5: XGTACX_site8267 (dsDNA)
DNA 1: AGATAAATATATTGTAGTACAGGAGCATAAATATAT
DNA 2: ATATATTTATGCTCCTGTACTACAATATATTTATCT
B6: XGTACX_site7025 (dsDNA)
DNA 1: TTTTTCTTTTTTTGGGGTACAGGGAAATCTATATTT
DNA 2: AAATATAGATTTCCCTGTACCCCAAAAAAAGAAAAA
B7: XGTACX_site7727 (dsDNA)
DNA 1: GGTGTATGTTAAAGGAGTACATATATATATATATAT
DNA 2: ATATATATATATATATGTACTCCTTTAACATACACC
B8: XGTACX_site8307 (dsDNA)
DNA 1: AAATTATAAAAATGTAGTACAGACAATATATTCGTA
DNA 2: TACGAATATATTGTCTGTACTACATTTTTATAATTT
B9: XGTACX_site4899 (dsDNA)
DNA 1: TATTCGTGCAATAGTAGTACACTTATAAATTATTCT
DNA 2: AGAATAATTTATAAGTGTACTACTATTGCACGAATA
B10: XGTACX_site7170 (dsDNA)
DNA 1: GTTTAGATAAAAGGGCGTACATCTATTTTTGACTAA
DNA 2: TTAGTCAAAAATAGATGTACGCCCTTTTATCTAAAC
B11: XGTACX_site6072 (dsDNA)
DNA 1: CGTTTATATTTTAACTGTACTCAAAAAGTGCATTGT
DNA 2: ACAATGCACTTTTTGAGTACAGTTAAAATATAAACG
B12: XGTACX_site8426 (dsDNA)
DNA 1: TAATATTTATAATAGTGTACACAATTATAAACTGAA
DNA 2: TTCAGTTTATAATTGTGTACACTATTATAAATATTA
B13: XGTACX_site206 (dsDNA)
DNA 1: TGTTTATACATCAGGTGTACGCAAAATAATTGTATG
DNA 2: CATACAATTATTTTGCGTACACCTGATGTATAAACA
B14: XGTACX_site8253 (dsDNA)
DNA 1: TTTTATGAAAAGATGAGTACACAATACTTTTTAATT
DNA 2: AATTAAAAAGTATTGTGTACTCATCTTTTCATAAAA
B15: XGTACX_site1983 (dsDNA)
DNA 1: GTTTGGTGGTGTTTTGGTACGTACGGGGGGGTATGT
DNA 2: ACATACCCCCCCGTACGTACCAAAACACCACCAAAC
B16: XGTACX_site5245 (dsDNA)
DNA 1: AAAAACAAAATTTGGAGTACAGTTATAATATTATTA
DNA 2: TAATAATATTATAACTGTACTCCAAATTTTGTTTTT
B17: XGTACX_site3752 (dsDNA)
DNA 1: TAAAAAAAAAAAAAAAGTACACACATACATATAAAT
DNA 2: ATTTATATGTATGTGTGTACTTTTTTTTTTTTTTTA
B18: XGTACX_site6504 (dsDNA)
DNA 1: TGAAAAGATAAAAAAAGTACACACACACATATATAT
DNA 2: ATATATATGTGTGTGTGTACTTTTTTTATCTTTTCA
B19: XGTACX_site6677 (dsDNA)
DNA 1: TTGTATTTCCTTAGGAGTACACATAAATAAGTAAAT
DNA 2: ATTTACTTATTTATGTGTACTCCTAAGGAAATACAA
B20: XGTACX_site5031 (dsDNA)
DNA 1: ACATTATATAAAATATGTACACATAAATAAATAAAT
DNA 2: ATTTATTTATTTATGTGTACATATTTTATATAATGT
B21: XGTACX_site4360 (dsDNA)
DNA 1: GATTAAAATCAAAGGTGTACGCACAAATAAGTCCCA
DNA 2: TGGGACTTATTTGTGCGTACACCTTTGATTTTAATC
B22: XGTACX_site882 (dsDNA)
DNA 1: TTTTCTTTTTTGAACTGTACGCGTAAATTTAAAAAG
DNA 2: CTTTTTAAATTTACGCGTACAGTTCAAAAAAGAAAA
B23: XGTACX_site2346 (dsDNA)
DNA 1: TTAATAATAAAAAGGAGTACACTAATATACTATAAA
DNA 2: TTTATAGTATATTAGTGTACTCCTTTTTATTATTAA
B24: XGTACX_site3050 (dsDNA)
DNA 1: ATATAATTTTTCAAGTGTACTTTTTTTTTTTAACAT
DNA 2: ATGTTAAAAAAAAAAAGTACACTTGAAAAATTATAT
B25: XGTACX_site3178 (dsDNA)
DNA 1: CTTGAAAGATTTTATTGTACTCATAAGATACATTTC
DNA 2: GAAATGTATCTTATGAGTACAATAAAATCTTTCAAG
B26: XGTACX_site5339 (dsDNA)
DNA 1: TATTTTTTACATTCGTGTACGCATTTTTGTGAATTT
DNA 2: AAATTCACAAAAATGCGTACACGAATGTAAAAAATA
B27: XGTACX_site622 (dsDNA)
DNA 1: CTTTGTGTTAAAAGTAGTACACCAAAAATATGACTT
DNA 2: AAGTCATATTTTTGGTGTACTACTTTTAACACAAAG
B28: XGTACX_site6064 (dsDNA)
DNA 1: TAAAACATATAAAGGTGTACGCCTTTTTGTATCAAT
DNA 2: ATTGATACAAAAAGGCGTACACCTTTATATGTTTTA
B29: XGTACX_site6063 (dsDNA)
DNA 1: ATGCATATATTTATGTGTACATATATTTGTAGGGGG
DNA 2: CCCCCTACAAATATATGTACACATAAATATATGCAT
B30: XGTACX_site1238 (dsDNA)
DNA 1: ATGTGCACATATAAAAGTACACGCACATATATATAT
DNA 2: ATATATATATGTGCGTGTACTTTTATATGTGCACAT
B31: XGTACX_site2257 (dsDNA)
DNA 1: CAAAATATACACACGTGTACACAAATATTTACAAAA
DNA 2: TTTTGTAAATATTTGTGTACACGTGTGTATATTTTG
B32: XGTACX_site2176 (dsDNA)
DNA 1: CTTCTTATTTTCTAATGTACGTACAAATCATTTATA
DNA 2: TATAAATGATTTGTACGTACATTAGAAAATAAGAAG
B33: XGTACX_site930 (dsDNA)
DNA 1: ATACATATTAATATGTGTACACATTTTTATTTTTTT
DNA 2: AAAAAAATAAAAATGTGTACACATATTAATATGTAT
B34: XGTACX_site6582 (dsDNA)
DNA 1: TTTCATTTTTTTACATGTACGCAAAAGTGTGTAGTT
DNA 2: AACTACACACTTTTGCGTACATGTAAAAAAATGAAA
B35: XGTACX_site8843 (dsDNA)
DNA 1: ATAATTATTTTCCCGTGTACTTATTTTTTTCAAGTA
DNA 2: TACTTGAAAAAAATAAGTACACGGGAAAATAATTAT
B36: XGTACX_site2541 (dsDNA)
DNA 1: ACAGCTACCAGATACTGTACTTTTCTCCAGACTGCA
DNA 2: TGCAGTCTGGAGAAAAGTACAGTATCTGGTAGCTGT
B37: XGTACX_site6448 (dsDNA)
DNA 1: AATTTATATGTTTTGTGTACACAATTTATTAAATTA
DNA 2: TAATTTAATAAATTGTGTACACAAAACATATAAATT
B38: XGTACX_site3357 (dsDNA)
DNA 1: AATATCCACATTAGGAGTACACAGCTAACTGTTTGA
DNA 2: TCAAACAGTTAGCTGTGTACTCCTAATGTGGATATT
B39: XGTACX_site5662 (dsDNA)
DNA 1: TTATTCTAAAAAGGGTGTACACAAACGAATGGAAAA
DNA 2: TTTTCCATTCGTTTGTGTACACCCTTTTTAGAATAA
B40: XGTACX_site8781 (dsDNA)
DNA 1: TAAATAAATTTGCACTGTACGCAAAAAAAAAAAAGA
DNA 2: TCTTTTTTTTTTTTGCGTACAGTGCAAATTTATTTA
B41: XGTACX_site4322 (dsDNA)
DNA 1: TTACGATACTTTAGGTGTACACAAATATACATGAAT
DNA 2: ATTCATGTATATTTGTGTACACCTAAAGTATCGTAA
B42: XGTACX_site7381 (dsDNA)
DNA 1: TATCTTTATATATAGTGTACACATTAAACAAATCTC
DNA 2: GAGATTTGTTTAATGTGTACACTATATATAAAGATA
B43: XGTACX_site2641 (dsDNA)
DNA 1: TATATATATTTAAGGTGTACATAAATAACAAAATAT
DNA 2: ATATTTTGTTATTTATGTACACCTTAAATATATATA

Biological target: T1, AP2-G D1 (Plasmodium falciparum, UniProt Q8I5I9 2123-2245)
T1 sequence: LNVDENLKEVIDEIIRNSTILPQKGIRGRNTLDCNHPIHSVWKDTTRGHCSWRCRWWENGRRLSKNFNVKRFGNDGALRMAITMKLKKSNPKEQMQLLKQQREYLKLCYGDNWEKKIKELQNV
Assay: gcPBM; about 25 ug protein; PBS, 1% milk, 0.2 mg/ml BSA, salmon testes DNA, 0.03% Triton X-100
Settings: tags: N-terminal GST (pGEX-4T-1), kept; label: surface-attached array probe

| Binder | binding signal |
| --- | --- |
| B1 | 12.8 ln median PBM intensity, better of two orientations |
| B2 | 12.8 ln median PBM intensity, better of two orientations |
| B3 | 12.8 ln median PBM intensity, better of two orientations |
| B4 | 12.8 ln median PBM intensity, better of two orientations |
| B5 | 12.8 ln median PBM intensity, better of two orientations |
| B6 | 12.7 ln median PBM intensity, better of two orientations |
| B7 | 12.7 ln median PBM intensity, better of two orientations |
| B8 | 12.7 ln median PBM intensity, better of two orientations |
| B9 | 12.7 ln median PBM intensity, better of two orientations |
| B10 | 12.7 ln median PBM intensity, better of two orientations |
| B11 | 12.7 ln median PBM intensity, better of two orientations |
| B12 | 12.7 ln median PBM intensity, better of two orientations |
| B13 | 12.7 ln median PBM intensity, better of two orientations |
| B14 | 12.7 ln median PBM intensity, better of two orientations |
| B15 | 12.7 ln median PBM intensity, better of two orientations |
| B16 | 12.7 ln median PBM intensity, better of two orientations |
| B17 | 12.7 ln median PBM intensity, better of two orientations |
| B18 | 12.7 ln median PBM intensity, better of two orientations |
| B19 | 12.7 ln median PBM intensity, better of two orientations |
| B20 | 12.7 ln median PBM intensity, better of two orientations |
| B21 | 12.7 ln median PBM intensity, better of two orientations |
| B22 | 12.7 ln median PBM intensity, better of two orientations |

| Binder | binding signal |
| --- | --- |
| B23 | 12.7 ln median PBM intensity, better of two orientations |
| B24 | 12.7 ln median PBM intensity, better of two orientations |
| B25 | 12.7 ln median PBM intensity, better of two orientations |
| B26 | 12.7 ln median PBM intensity, better of two orientations |
| B27 | 12.7 ln median PBM intensity, better of two orientations |
| B28 | 12.6 ln median PBM intensity, better of two orientations |
| B29 | 12.6 ln median PBM intensity, better of two orientations |
| B30 | 12.6 ln median PBM intensity, better of two orientations |
| B31 | 12.6 ln median PBM intensity, better of two orientations |
| B32 | 12.6 ln median PBM intensity, better of two orientations |
| B33 | 12.6 ln median PBM intensity, better of two orientations |
| B34 | 12.6 ln median PBM intensity, better of two orientations |
| B35 | 12.6 ln median PBM intensity, better of two orientations |
| B36 | 12.6 ln median PBM intensity, better of two orientations |
| B37 | 12.6 ln median PBM intensity, better of two orientations |
| B38 | 12.6 ln median PBM intensity, better of two orientations |
| B39 | 12.6 ln median PBM intensity, better of two orientations |
| B40 | 12.6 ln median PBM intensity, better of two orientations |
| B41 | 12.6 ln median PBM intensity, better of two orientations |
| B42 | 12.4 ln median PBM intensity, better of two orientations |
| B43 | 12.3 ln median PBM intensity, better of two orientations |
